Measurements published in patent US20230099646A1 (published 2023).

Molecular target: T1, cynomolgus monkey CD19 (cCD19) (cynomolgus monkey)
T1 construct: Expressed on transiently transfected 293 cells
T1 chain: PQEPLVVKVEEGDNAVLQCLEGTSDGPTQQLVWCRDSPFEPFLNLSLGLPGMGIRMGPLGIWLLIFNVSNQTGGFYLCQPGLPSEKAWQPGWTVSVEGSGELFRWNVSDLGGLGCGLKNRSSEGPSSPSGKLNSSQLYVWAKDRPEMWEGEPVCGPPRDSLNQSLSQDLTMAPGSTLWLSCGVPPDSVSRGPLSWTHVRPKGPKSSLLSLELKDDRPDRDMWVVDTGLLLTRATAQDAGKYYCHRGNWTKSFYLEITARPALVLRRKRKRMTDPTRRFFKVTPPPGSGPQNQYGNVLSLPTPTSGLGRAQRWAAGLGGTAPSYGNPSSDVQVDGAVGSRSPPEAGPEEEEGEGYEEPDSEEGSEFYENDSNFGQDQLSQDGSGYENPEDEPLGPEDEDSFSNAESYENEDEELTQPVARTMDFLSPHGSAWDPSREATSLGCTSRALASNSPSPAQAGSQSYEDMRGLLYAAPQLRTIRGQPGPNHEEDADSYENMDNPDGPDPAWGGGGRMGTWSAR
Assay: flow cytometry on transfected 293 cells
Experimental: In brief, first, the expression of CD19 protein was identified.
Binding to GFP-positive cells was analyzed on the basis of mean fluorescence intensity (MFI).

B1: CD19_12.18 antibody (scFv, V domains shown)
VH: AVTLDESGGGLQTPGGALSLVCKASGFTFSSYDMGWVRQAPGKGLEFVAGIDDDGRYTSYGSAVDGRATISRDNGQSTVRLQLNNLRAEDTATYYCTRGNAGWIDAWGHGTEVIVSS
VL: LTQPSSVSANPGETVKITCSGGYSSYYGWYQQKSPGSAPVTLIYESNKRPSDIPSRFSGSASGSTATLTITGVQVEDEAVYYCGGWDSTHAGIFGAGTTLTVLG
notes: Chicken-derived antibody, tested as an Fc fusion (Anti-CD19 scFv-Fc) made in FreeStyle 293F cells; also called CD19_1218-Fc; Anti-CD19 scFv-Fc
- binding result: no binding
